Laboratory results: patent US20180155451A1 (published 2018)
Changes are numbered by the printed parent chain. Like-named read-outs stand apart in the source and are kept apart here.

What was measured:
Test in all cases: SPR (Biacore), antibody captured on chip, FcgR extracellular domain as analyte
FcgRIIIa F [1] = biological target: T1, FcgRIIIa F (human, UniProt P08637 17-208)
T1 construct: extracellular domain; also called FcγRIIIa F; not shown: His tag attached to the C terminus

FcgRIIa R [2] = biological target: T2, FcgRIIa R (human, UniProt P12318 34-217)
T2 construct: extracellular domain; also called FcγRIIa R; FcγRIIa type R; not shown: His tag attached to the C terminus
T2 sequence (looked up): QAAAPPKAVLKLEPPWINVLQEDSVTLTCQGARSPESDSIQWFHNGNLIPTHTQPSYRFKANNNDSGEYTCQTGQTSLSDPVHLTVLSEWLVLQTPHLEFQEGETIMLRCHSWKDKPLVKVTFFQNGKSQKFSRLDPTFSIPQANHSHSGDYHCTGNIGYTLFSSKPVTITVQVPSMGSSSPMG

FcgRIIb [3] = biological target: T3, FcgRIIb (human, UniProt P31994 43-217)
T3 construct: extracellular domain; Expressed in FreeStyle293 cells and purified; used as analyte in Biacore; also called FcγRIIb; CD32B; not shown: His tag attached to the C terminus
T3 sequence (looked up): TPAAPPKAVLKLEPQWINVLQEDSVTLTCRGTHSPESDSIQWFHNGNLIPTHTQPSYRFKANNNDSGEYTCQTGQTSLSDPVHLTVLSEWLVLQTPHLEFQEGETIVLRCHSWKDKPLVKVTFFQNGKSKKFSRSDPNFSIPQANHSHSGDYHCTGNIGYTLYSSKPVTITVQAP

FcgRIa [4] = biological target: T4, FcgRIa (human, UniProt P12314 16-292)
T4 construct: extracellular domain; Expressed in FreeStyle293 cells and purified; used as analyte in Biacore; also called FcγRIa; FcγRI; not shown: His tag attached to the C terminus
T4 sequence (P12314 16-292): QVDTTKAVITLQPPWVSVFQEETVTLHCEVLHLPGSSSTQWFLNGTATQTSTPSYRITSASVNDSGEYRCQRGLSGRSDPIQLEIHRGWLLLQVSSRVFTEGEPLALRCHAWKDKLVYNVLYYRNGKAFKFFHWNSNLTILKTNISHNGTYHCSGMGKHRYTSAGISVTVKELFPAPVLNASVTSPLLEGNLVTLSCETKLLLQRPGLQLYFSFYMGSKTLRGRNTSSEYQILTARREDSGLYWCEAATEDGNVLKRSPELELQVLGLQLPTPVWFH

FcgRIIIa V [5] = biological target: T5, FcgRIIIa V (human, UniProt P08637 17-208)
T5 construct: extracellular domain; also called FcγRIIIa V; not shown: His tag attached to the C terminus
T5 sequence (P08637 17-208 F176V limits assumed): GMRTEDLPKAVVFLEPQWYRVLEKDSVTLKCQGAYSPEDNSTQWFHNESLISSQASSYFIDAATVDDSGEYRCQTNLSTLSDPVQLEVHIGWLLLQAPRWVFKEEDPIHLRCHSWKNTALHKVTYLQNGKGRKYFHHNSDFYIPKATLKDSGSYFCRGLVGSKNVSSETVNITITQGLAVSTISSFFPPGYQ

FcgRIIa H [6] = biological target: T6, FcgRIIa H (human, UniProt P12318 34-217)
T6 construct: extracellular domain; also called FcγRIIa H; FcγRIIa type H; not shown: His tag attached to the C terminus
T6 sequence (looked up): T2 sequence (looked up) with R134H

FcgRIIIa F [7] = biological target: T1, FcgRIIIa F; remark: listed apart in the source
Experimental: (§1) Specifically, H240-Kn120 (SEQ ID NO: 99) resulting from introduction of S239M into H240-Kn067 and H240-Kn126 (SEQ ID NO: 100) resulting from introduction of Y235Q into H240-Kn120 were prepared according to the method described in Reference Example 1. […] Those described above were assayed for the binding to each FcgR according to the method described in Reference Example 8.
(§2) Analysis of interaction between obj ective antibody and the FcγR was carried out using Biacore T100 (GE Healthcare), Biacore T200, Biacore A100, and Biacore 4000. HBS-EP+ (GE Healthcare) was used as the running buffer, and the measurement temperature was set to 25° C. Chips produced by immobilizing the antigen peptide by the amine coupling method to a Series S sensor Chip CM5 (GE Healthcare), chips produced by allowing preliminarily biotinylated antigen peptides to interact with and immobilize onto a Series S Sensor Chip SA (certified) (GE Healthcare), chips produced by immobilizing Protein L (ACTIGEN, BioVision) to Series S Sencor Chip CM5 (GE Healthcare), or chips produced by immobilizing Protein A/G (Thermo Scientific) to Series S Sencor Chip CM5 (GE Healthcare) were used. Antibodies of interest were captured onto these chips, and allowed to interact to each FcγR diluted with running buffer. To regenerate and repeatedly use the chip, the antibodies captured onto the chip were washed off by reacting 10 mM glycine-HCl, pH 1.5.

FcgRIIIa V [8] = biological target: T5, FcgRIIIa V; remark: listed apart in the source
Experimental: as §1, §2

FcgRIIa H [9] = biological target: T6, FcgRIIa H; remark: listed apart in the source
Experimental: as §1, §2

FcgRIIIa F [10] = biological target: T1, FcgRIIIa F; remark: listed apart in the source
FcgRIIa R [11] = biological target: T2, FcgRIIa R; remark: listed apart in the source
FcgRIIb [12] = biological target: T3, FcgRIIb; remark: listed apart in the source
FcgRIa [13] = biological target: T4, FcgRIa; remark: listed apart in the source
FcgRIIIa V [14] = biological target: T5, FcgRIIIa V; remark: listed apart in the source
FcgRIIa H [15] = biological target: T6, FcgRIIa H; remark: listed apart in the source

T1 sequence (P08637 17-208): as the sequence (P08637 17-208 F176V limits assumed) above, with V160F counted along it

Kd (FcgRIIIa F [1]): 79 nM
Kd (FcgRIIa R [2]): 490 nM
Kd (FcgRIIb [3]): 2600 nM
Kd (FcgRIa [4]): 0.43 nM
Kd (FcgRIIIa V [5]): 6.9 nM
Kd (FcgRIIa H [6]): 780 nM
Kd (FcgRIIIa F [7]): 79 nM
Kd (FcgRIIIa V [8]): 6.9 nM
Kd (FcgRIIa H [9]): 780 nM
Kd (FcgRIIIa F [10]): 79 nM
Kd (FcgRIIa R [11]): 490 nM
Kd (FcgRIIb [12]): 2600 nM
Kd (FcgRIa [13]): 0.43 nM
Kd (FcgRIIIa V [14]): 6.9 nM
Kd (FcgRIIa H [15]): 780 nM
B1: H240-afucosyl_G1d/L73-k0 (antibody, human IgG1, kappa)
heavy: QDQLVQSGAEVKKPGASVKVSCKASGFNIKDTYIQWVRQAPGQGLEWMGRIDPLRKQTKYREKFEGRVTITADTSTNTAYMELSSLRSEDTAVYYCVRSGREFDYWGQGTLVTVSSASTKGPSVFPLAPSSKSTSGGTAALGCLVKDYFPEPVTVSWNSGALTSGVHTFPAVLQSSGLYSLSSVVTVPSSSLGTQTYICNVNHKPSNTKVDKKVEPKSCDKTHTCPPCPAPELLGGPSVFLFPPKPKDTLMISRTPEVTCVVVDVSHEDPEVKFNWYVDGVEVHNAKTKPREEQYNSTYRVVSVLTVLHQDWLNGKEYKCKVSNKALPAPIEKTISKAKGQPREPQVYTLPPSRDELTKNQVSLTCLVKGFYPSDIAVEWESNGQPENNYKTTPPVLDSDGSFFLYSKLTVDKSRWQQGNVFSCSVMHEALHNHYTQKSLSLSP
light: DIQMTQSPSSLSASVGDRVTITCRASQDIHKYIAWYQQKPGQAPRLLIQYTSTLQPGVPSRFSGSGSGTDYTFTISSLQPEDIATYYCLQYEQLRTFGGGTKVEIKRTVAAPSVFIFPPSDEQLKSGTASVVCLLNNFYPREAKVQWKVDNALQSGNSQESVTEQDSKDSTYSLSSTLTLSKADYEKHKVYACEVTHQGLSSPVTKSFNRGEC
modifications: fucose removed from the sugar chain (afucosylated); amino acid sequence same as H240-G1d
notes: Anti-EREG IgG1 obtained by afucosylating H240-G1d/L73-k0; also called afucosylated antibody
